Test results reported in patent US20170037083A1 (AVIXGEN, published 2017).
Where no end group is shown, it is not given here.

What was measured:
[1] = molecular target: T1, VEGFR-2 expressed in HUVECs (human, UniProt P35968 20-1356); assay: flow cytometry (FACS) on HUVECs, FITC-RLYE 15 nM, VEGF-A 100 ng/ml added before or after
T1 construct: whole, on cells; On the surface of HUVECs in FACS, confocal microscopy and the cell assays; in detergent lysate of HUVECs in the pull-down assay; also called VEGF receptor-2
T1 sequence (P35968 20-1356): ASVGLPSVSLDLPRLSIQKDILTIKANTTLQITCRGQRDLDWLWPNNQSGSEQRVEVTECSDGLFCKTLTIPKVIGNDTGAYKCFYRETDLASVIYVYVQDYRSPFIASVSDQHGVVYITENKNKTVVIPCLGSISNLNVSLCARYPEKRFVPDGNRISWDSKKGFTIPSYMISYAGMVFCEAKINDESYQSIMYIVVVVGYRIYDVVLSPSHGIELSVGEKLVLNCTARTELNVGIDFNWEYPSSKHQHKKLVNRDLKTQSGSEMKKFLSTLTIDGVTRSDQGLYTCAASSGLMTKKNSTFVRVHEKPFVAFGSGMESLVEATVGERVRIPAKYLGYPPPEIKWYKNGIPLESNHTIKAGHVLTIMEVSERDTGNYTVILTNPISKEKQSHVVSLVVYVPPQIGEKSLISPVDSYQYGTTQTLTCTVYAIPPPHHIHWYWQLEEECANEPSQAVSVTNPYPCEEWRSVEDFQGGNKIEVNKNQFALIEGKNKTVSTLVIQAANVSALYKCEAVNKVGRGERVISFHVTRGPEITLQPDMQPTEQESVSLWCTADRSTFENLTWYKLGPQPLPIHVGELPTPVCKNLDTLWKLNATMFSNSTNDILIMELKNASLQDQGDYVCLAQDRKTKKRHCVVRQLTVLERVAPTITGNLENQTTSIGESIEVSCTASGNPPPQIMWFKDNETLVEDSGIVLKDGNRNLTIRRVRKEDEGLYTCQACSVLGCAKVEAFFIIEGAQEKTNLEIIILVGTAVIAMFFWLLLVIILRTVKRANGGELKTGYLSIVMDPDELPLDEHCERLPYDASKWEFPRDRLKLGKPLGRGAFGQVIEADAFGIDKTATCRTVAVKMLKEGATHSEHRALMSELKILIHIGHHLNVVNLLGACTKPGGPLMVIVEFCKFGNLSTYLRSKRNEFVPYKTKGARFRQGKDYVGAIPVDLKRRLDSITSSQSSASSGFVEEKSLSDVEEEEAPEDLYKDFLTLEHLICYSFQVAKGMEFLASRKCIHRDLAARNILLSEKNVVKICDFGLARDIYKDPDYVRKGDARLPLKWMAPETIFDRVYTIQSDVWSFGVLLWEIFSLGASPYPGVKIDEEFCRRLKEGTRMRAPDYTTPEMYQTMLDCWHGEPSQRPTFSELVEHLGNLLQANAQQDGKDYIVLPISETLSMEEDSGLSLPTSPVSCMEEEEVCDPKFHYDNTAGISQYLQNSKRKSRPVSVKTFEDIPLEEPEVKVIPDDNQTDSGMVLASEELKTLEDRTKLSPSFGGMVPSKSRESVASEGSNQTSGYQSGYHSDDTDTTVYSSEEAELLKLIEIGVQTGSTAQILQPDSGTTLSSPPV
Protocol: HUVECs were cultured in a 60-mm culture plate for 24 hours. The cells were isolated from the plate with 5 mM EDTA-containing phosphate-buffered saline (PBS), washed with PBS three times, and suspended in 2% FBS/0.1% bovine serum albumin-containing PBS. Afterward, before or after the reaction with FITC-conjugated RLYE (15 nM), the cells were treated with VEGF (100 ng/ml), stored on ice for 30 minutes, fixed in 2% paraformaldehyde, and assessed with a fluorescence activated cell sorter (FACS Calibur, Becton Dickinson) by flow cytometry.
(§1) Subsequently, it was investigated whether RLYE (SEQ ID NO: 2) interacts with VEGFR-2 expressed in HUVECs. HUVECs were cultured with FITC-RLYE before or after VEGF-A treatment, and FACS was performed to examine an amount of RLYE (SEQ ID NO: 2) binding to the HUVECs. […] To examine binding between RLYE (SEQ ID NO: 2) and VEGF receptors, a pull-down assay was performed. […] Therefore, the binding between RLYE (SEQ ID NO: 2) and VEGFR-2 was identified as a strong bond having a small dissociation coefficient (194 nM), and it was also seen that RLYE (SEQ ID NO: 2) binds to VEGFR-2 at the same positions to which VEGF-A/C binds (immunoglobulin homology domains D2 and D3) (see FIG. 10A).

VEGFR-1 = molecular target: T2, VEGFR-1 (human, UniProt P17948 27-1338); assay: streptavidin-agarose pull-down from HUVEC lysate with biotin-labeled RLYE, immunoblot for VEGFR-1
T2 construct: whole, on cells; In detergent lysate of HUVECs in the pull-down assay; on IM-9 and RPMI 8226 cells and HUVECs in the functional assays; also called VEGF receptor-1
T2 sequence (P17948 27-1338): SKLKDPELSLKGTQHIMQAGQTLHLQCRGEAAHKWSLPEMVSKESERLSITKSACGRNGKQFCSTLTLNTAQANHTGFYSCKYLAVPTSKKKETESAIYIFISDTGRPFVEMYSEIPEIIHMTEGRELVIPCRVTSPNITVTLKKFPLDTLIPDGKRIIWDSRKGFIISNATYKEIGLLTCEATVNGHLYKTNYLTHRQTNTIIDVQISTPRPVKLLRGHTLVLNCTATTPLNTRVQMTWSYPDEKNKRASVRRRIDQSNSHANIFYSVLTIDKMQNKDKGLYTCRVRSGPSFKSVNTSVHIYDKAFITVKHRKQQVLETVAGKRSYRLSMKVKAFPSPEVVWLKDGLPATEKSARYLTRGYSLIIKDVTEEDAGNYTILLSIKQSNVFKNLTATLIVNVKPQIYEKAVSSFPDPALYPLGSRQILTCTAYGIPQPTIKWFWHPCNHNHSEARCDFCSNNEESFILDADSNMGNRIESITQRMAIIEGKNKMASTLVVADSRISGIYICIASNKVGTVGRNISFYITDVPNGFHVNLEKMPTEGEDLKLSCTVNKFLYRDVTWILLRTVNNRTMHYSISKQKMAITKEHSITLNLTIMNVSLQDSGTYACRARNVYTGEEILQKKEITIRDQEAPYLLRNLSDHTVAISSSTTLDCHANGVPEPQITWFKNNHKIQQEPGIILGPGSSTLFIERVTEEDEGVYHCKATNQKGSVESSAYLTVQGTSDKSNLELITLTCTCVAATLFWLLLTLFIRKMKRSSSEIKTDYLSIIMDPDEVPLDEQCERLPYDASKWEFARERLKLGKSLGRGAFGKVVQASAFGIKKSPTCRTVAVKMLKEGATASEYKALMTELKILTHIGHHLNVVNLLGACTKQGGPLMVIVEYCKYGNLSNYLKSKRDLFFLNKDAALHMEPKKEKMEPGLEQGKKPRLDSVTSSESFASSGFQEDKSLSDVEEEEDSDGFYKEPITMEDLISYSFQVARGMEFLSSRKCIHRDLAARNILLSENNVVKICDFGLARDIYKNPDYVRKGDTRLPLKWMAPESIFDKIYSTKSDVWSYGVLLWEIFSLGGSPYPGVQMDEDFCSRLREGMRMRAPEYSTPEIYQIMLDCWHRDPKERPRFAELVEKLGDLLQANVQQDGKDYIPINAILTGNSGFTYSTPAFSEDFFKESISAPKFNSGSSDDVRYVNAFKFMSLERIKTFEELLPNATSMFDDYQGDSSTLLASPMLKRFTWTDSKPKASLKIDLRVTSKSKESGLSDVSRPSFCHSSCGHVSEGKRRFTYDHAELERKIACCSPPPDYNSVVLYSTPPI
Protocol: HUVECs were lysed in a pull-down buffer [50 mM Tris-HCl (pH 8.0), 150 mM sodium chloride, 1.0% NP-40, 0.5% sodium deoxycholate and 0.1% SDS]. A lysate ([…] of proteins) was reacted with biotin-labeled RLYE (0.15 or 1.5 nM) for 1 hour, and reacted with streptavidin-agarose beads ([…]) at 4° C. for 1 hour. RLYE-binding proteins were isolated from the cell lysate through centrifugation, washed, and then boiled for 10 minutes. The bead-binding proteins were isolated by SDS-PAGE, and immunoblotting was performed with an antibody with respect to VEGFR-2 or VEGFR-1.
as §1

[2] = molecular target: T1, VEGFR-2 expressed in HUVECs; assay: cell-based or functional assay
rhVEGFR-2 = molecular target: T3, rhVEGFR-2 (human, UniProt P35968 20-764, limits assumed); assay: SPR (BIAcore), rhVEGFR-2 immobilised on the chip, RLYE injected
T3 construct: Immobilised on the carboxymethylated dextran chip for SPR; also called recombinant human VEGFR-2; VEGF receptor-2
T3 sequence (P35968 20-764 limits assumed): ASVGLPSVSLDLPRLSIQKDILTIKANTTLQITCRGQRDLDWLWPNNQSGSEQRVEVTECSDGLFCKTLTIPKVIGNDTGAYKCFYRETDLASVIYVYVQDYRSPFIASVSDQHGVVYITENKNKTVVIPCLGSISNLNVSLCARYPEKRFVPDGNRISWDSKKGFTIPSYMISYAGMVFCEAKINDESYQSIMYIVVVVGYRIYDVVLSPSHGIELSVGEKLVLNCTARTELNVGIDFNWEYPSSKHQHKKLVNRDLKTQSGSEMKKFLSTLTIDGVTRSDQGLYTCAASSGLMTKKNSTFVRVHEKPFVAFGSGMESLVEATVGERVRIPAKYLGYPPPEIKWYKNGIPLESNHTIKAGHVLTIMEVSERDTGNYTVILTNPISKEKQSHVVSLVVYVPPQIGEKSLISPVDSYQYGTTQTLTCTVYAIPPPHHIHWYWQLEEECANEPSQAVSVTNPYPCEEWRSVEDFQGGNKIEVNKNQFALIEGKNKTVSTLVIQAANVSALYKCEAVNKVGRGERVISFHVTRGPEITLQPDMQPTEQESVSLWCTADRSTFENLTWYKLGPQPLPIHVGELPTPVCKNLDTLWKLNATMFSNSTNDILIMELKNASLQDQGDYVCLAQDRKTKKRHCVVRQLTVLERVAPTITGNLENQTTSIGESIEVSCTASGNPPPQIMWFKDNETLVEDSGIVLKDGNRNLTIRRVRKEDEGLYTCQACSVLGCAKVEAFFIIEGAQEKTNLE
Protocol: Binding dynamics and affinity of RLYE to rhVEGFR-2 were evaluated with BIAcore AB (Sweden). A carboxymethylated dextran biosensor chip (CMS, BIAcore AB) was activated with 1-ethyl-3-(3-dimethylaminopropyl)carbodiimide and N-hydroxysuccinimide according to the manufacturer's manual. The rhVEGFR-2 (1 ng/μl, 10 mM Hepes, 150 mM NaCl, 3 mM EDTA, 0.005% Tween-20-containing HBS-EP buffer) was injected over the activated CMS chip for fixation. Various concentrations of an RLYE solution was injected over the rhVEGFR-2-fixed center chip with a flow rate of 25 μl/min, and binding and non-binding characteristics between RLYE and the rhVEGFR-2 were analyzed. The peptide bonds were measured in arbitrary response units, and after the injection of each sample (120 sec), the HBS-EP buffer was passed over a sensor surface to monitor dissociation. The equilibrium dissociation constant (Kd) was derived to a fixing step-combined model.
Meanwhile, the interaction between RLYE (SEQ ID NO: 2) and rhVEGFR-2 was examined by SPR analysis.

B1: FITC-conjugated RLYE (peptide)
peptide: RLYE
modifications: also: FITC-conjugated, site not given here
notes: Used at 15 nM in FACS and at 100 ng/ml in confocal microscopy on HUVECs; also called FITC-RLYE
- binding result [1]: binds

B2: biotin-labeled RLYE (peptide)
peptide: RLYE
modifications: also: biotin-labeled, site not given here
notes: Used at 0.15 or 1.5 nM in the pull-down from HUVEC lysate with streptavidin-agarose beads; also called biotinylated RLYE peptide
- binding result (VEGFR-1): no binding

B3: RLYE peptide (SEQ ID NO: 2) (peptide)
peptide: RLYE
notes: Unlabelled synthetic tetrapeptide, analyte in the SPR assay and used in the cell assays
- IC50 of VEGF-induced HUVEC migration (transwell) [2]: 0.06 nM
- IC50 of VEGF-induced HUVEC proliferation ([3H]-thymidine incorporation) [2]: 0.08 nM
- Kd (rhVEGFR-2): 9000 nM
